Laboratory results as given in paper PMC7567884.

What follows are sequences tested against T1, His-LexA (Synechocystis sp. PCC 6803) (UniProt P73722) (assay: EMSA). Details: DIG Gel Shift Kit 2nd generation (Roche), as in Kizawa et al. (ref 9); 6% polyacrylamide gel; buffer, salt, pH and temperature not given.
T1 sequence: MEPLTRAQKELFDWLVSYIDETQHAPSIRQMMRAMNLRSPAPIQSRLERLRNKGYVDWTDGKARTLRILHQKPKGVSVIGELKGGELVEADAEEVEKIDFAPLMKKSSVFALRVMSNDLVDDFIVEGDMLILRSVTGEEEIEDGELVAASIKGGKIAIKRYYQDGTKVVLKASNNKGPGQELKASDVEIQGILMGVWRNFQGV

binding, binds:
GTGGGAAAGTTCCACCTATACCATGCCTTGAAAATTGGTATGGGTCAAATCAGATAGTTCTTTTTGACTACTAATTTTGTTGCTAGCAGCGTTGTCAATCCCATCGCTCTGGTCTGGGATGCAAATGGCAGGAAAATTCTGCTCCCCTTGGGGGAAACGAGTTACGATGGGGGCGACGTTTGCTTTGTTTGCGACATAAT (double strand) [PggtB], TAACTCGTCACACCCCATGTGGGCAATGGTATCGTATTCTGCCCAGGTTTCCACCCCTTCAGCCGTTACTCGCAACTCTAGTTCGTGGGCTAGGTTGATAATTGAGGCGGTGATAGTTTTATTCTTGGCGTTTTTGTCAATGTGACGCACAAAGCTTTGATCTATTTTCAGCACATCAAAGGGGAACTGCTGCAGATAAC (double strand) [PggpP], TGCAATTTCCTCCTGTCCTCAGGGGACAAACTATATTAAGAAAGTTTACGGGATTATGTTGCCCGGGGAGAATTTGTCCGTGGGGGGTTTACCGACCGATCGCCGGTGAGAAGTACCAGGATAGCTTTATAAAGTTTTGTTACAATGGCAGAAGAAATTCTCAGAAACCCAGCC (double strand) [PnblB], TGGGATCAAACAACAAGAAAAAATCAATTTACCCTGCCCATGGCAATAGTTTTAAGGTTAACAAAAAAAATAGAATTTACCGCAATCGACGGGTAAATTTCCAGAGGATACCCCCAACTCCAGAAGCAGAAATCTTGCCAGAAAAGCTTTTTCTGTTACTATACTTAACAAGTAACTACTTTTTCC (double strand) [PggpS], TGGGCAGGGTAAATTGATTTTTTCTTGTTGTTTGATCCCATTTTCCAGTCTTTTTGACTTCCATTCAGTCAGGATAATTTTTGCAGTTTTTTTATGGAGTTTTGATAACATTGAGCTTTGCCCCCGGCGATCGCCTAGGGATAAACAATAAACGTGTGAACTAATATGCCTGGATTTATCCCTGGATTGACATTGTTTTTGCC (double strand) [PgghA], TTTTTCACAACCTAAGACTTCCTTCCAAAAATCCATAGGGCGGTGGAAGCTTAGCTATTTTTACCATTTTGTTTTGCCACTCAAATATTTACTTAAGGTGAGGTAAAAACTCATCTTTTTTTTACTAAAAATTGCGGCTAGAAATGTAATTTCGGCAATCCCCCCACCTTCTTTCCTGAAAACCGAATCTAACCTGGAAGGGGAAATTTTAAGATAGAACCATTCAAGGGTAATCAATTCCTTCCACACATCAGGAGTTAACATT (double strand) [PhspA]
